One test deals with biotinylated iC3b. Nature of the test: SPR. A general note: In SPR one partner is held on a chip, and binding of the other changes the refractive index at the surface.
In test [1] the target is recombinant human αI domain of αMβ2 (human, UniProt P11215). Put plainly: SEC. Background: SEC sorts molecules by how far they enter the pores of the column.
For test [2], the target named is αM subunit of the αMβ2 headpiece (human, UniProt P11215). Put plainly: crystal structure.
Chain of αM subunit of the αMβ2 headpiece (P11215 17-770): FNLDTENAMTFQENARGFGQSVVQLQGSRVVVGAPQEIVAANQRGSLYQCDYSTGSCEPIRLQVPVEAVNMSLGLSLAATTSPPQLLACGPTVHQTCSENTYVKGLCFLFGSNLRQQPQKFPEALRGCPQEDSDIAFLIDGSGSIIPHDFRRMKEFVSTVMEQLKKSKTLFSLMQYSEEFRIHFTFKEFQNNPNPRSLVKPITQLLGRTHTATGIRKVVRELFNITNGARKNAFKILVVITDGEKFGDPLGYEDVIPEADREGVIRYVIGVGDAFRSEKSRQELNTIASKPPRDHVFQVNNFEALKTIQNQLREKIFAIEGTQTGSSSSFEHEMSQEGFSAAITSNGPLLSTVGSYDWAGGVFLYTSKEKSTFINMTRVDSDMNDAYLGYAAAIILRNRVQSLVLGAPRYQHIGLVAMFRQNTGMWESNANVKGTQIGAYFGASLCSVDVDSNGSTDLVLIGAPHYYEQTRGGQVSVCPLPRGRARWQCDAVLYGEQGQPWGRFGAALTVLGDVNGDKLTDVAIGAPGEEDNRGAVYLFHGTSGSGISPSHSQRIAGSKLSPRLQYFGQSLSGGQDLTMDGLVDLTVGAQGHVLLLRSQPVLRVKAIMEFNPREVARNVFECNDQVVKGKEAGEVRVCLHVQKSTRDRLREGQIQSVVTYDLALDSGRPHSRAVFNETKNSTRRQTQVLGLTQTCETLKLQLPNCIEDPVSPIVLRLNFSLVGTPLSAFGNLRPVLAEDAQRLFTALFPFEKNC

Chain of recombinant human αI domain of αMβ2 (P11215 148-336): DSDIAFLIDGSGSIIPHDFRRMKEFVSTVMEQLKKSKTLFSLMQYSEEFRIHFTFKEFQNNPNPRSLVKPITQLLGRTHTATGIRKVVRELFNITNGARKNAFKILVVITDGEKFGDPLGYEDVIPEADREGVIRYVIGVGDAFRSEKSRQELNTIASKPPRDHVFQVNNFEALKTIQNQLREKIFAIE

A word on the Kd: it is the equilibrium constant for the complex coming apart. A low value points to tighter binding. In the test with biotinylated iC3b, “αMβ2 headpiece (from UniProt P05107 23-482) (complex)” yielded a Kd of 30 nM.

B1: hCD11bNb1 (VHH)
VHH: QVQLVETGGGLVQAGGSLRLSCAASGNINSFNAMGWFRQAPGKQRELVAAITFGGRTNYADSVKGRFTISRDNTKGSVYLQMNSLKPEDTAVYYCAASENNLLTGVWHYWGRGTQVTVSS
As for B1, the binding result in test [1] and in test [2] was “binds” in each case.

The values are drawn from article doi:10.1101/2021.07.07.451531 (bioRxiv, 2021).
